1 substance from PMC2500142 can be followed below.

This test addresses GFP-actin (UniProt P60709). Put plainly: dual color fluorescence cross-correlation spectroscopy.

Take “DsRed-AQP2 (from UniProt P41181 1-271) (natural protein)”: the relative cross-correlation amplitude ([Gc(0)-1]/[Gr(0)-1]), apical membrane was determined as 0.33 and the relative cross-correlation amplitude ([Gc(0)-1]/[Gr(0)-1]), subapical region was 0.4.
